Measured values as given in article PMC13418734.

Key:
[1] = molecular target: Fluc^K378C-K496C (Fluc^CDS1, C-terminal domain sensor) (firefly); experiment: FRET or BRET; single-molecule FRET (TIRF) within AF555/AF647-labelled Fluc immobilised on a neutravidin coverslip; the low-FRET (<0.3) state is read as DnaK bound; DnaJ 0.6 uM, DnaK 20 uM, GrpE 1.2 uM and HtpG 10 uM (KJEG); ATP; imaging buffer, room temperature
[2] = molecular target: Fluc^A12C-K329C (Fluc^NDS1, N-terminal domain sensor) (firefly); experiment: as above

percent of the time DnaK bound (<0.3 FRET) after 15 min [1]: 15%
percent of the time DnaK bound (<0.3 FRET) after 15 min [2]: 15%
Substance: DnaK (Escherichia coli Hsp70) (from UniProt P0A6Y8 1-638) (natural protein)
